Values joined by “and” are separate entries in the source; they are usually repeats but may differ in a detail not shown here. Identical values can stand only once. Like-named read-outs stand apart in the source and are kept apart here.
Tests used:
[1] = molecular target: the molecule itself; assay: SEC-MALS; samples at 0.5–20 mg/ml in 20 mM Tris pH 8.0, 150 mM KCl, 2 mM DTT; Superdex 200 Increase 10/300 GL; concentration series and enriched species; self-association: dimer and higher oligomers of dimers
[2] = molecular target: the molecule itself; assay: dynamic light scattering; 20 °C, samples at 5–20 mg/ml in 20 mM Tris pH 8.0, 150 mM KCl, 2 mM DTT; size distribution by volume
[3] = molecular target: the molecule itself; assay: SEC-MALS; samples at 0.5–20 mg/ml in 20 mM Tris pH 8.0, 150 mM KCl, 2 mM DTT; Superdex 200 Increase 10/300 GL; concentration series and enriched species; self-association: dimer and higher oligomers of dimers; remark: listed apart in the source

Protein | stoichiometry N [1] | stoichiometry N [3] | also measured
SYCE3 9–88 Y11N/L15N (domain or fragment, human, UniProt A1L190 9-88, looked up, SYCE3, human, amino acids 9–88 with Y11N and L15N (label of the legend; the text says 'mutation to glutamine'); source: E. coli BL21(DE3), purified (Ni-NTA, amylose, anion exchange, SEC where appropriate); not shown: His6, N-terminal, cleaved; MBP, N-terminal, cleaved) RNNDNMNKMLSDLNKDLEKLLEEMEKISVQATWMAYDMVVMRTNPTLAESMRRLEDAFVNCKEEMEKNWQELLHETKQRL | 2 | – | –
SYCE3 9–88 (domain or fragment, human, UniProt A1L190 9-88, looked up, SYCE3, human, amino acids 9–88 (unstructured N terminus removed); source: E. coli BL21(DE3), purified (Ni-NTA, amylose, anion exchange, SEC where appropriate); not shown: His6, N-terminal, cleaved; MBP, N-terminal, cleaved) RNYDNMLKMLSDLNKDLEKLLEEMEKISVQATWMAYDMVVMRTNPTLAESMRRLEDAFVNCKEEMEKNWQELLHETKQRL | – | – | binding result [2]: binds
SYCE3 12–88 L15N (domain or fragment, human, UniProt A1L190 12-88, looked up, SYCE3, human, amino acids 12–88 with point mutation L15N; source: E. coli BL21(DE3), purified (Ni-NTA, amylose, anion exchange, SEC where appropriate); not shown: His6, N-terminal, cleaved; MBP, N-terminal, cleaved) DNMNKMLSDLNKDLEKLLEEMEKISVQATWMAYDMVVMRTNPTLAESMRRLEDAFVNCKEEMEKNWQELLHETKQRL | – | 2 | –
SYCE3 12–88 (domain or fragment, human, UniProt A1L190 12-88, looked up, SYCE3, human, amino acids 12–88 (α1 N-terminal tip removed, structural core kept); source: E. coli BL21(DE3), purified (Ni-NTA, amylose, anion exchange, SEC where appropriate); not shown: His6, N-terminal, cleaved; MBP, N-terminal, cleaved) DNMLKMLSDLNKDLEKLLEEMEKISVQATWMAYDMVVMRTNPTLAESMRRLEDAFVNCKEEMEKNWQELLHETKQRL | 2 | – | –
SYCE3 1–88 W41A/Y44A (natural protein, human, UniProt A1L190 1-88, looked up, SYCE3, human, amino acids 1–88 with W41A and Y44A; also called SYCE3 W41A/Y44A; source: E. coli BL21(DE3), purified (Ni-NTA, amylose, anion exchange, SEC where appropriate); not shown: His6, N-terminal, cleaved; MBP, N-terminal, cleaved) MDDADPEERNYDNMLKMLSDLNKDLEKLLEEMEKISVQATAMAADMVVMRTNPTLAESMRRLEDAFVNCKEEMEKNWQELLHETKQRL | – | 2 and 4 | –
Human SYCE3 full-length (amino acids 1–88) (natural protein, UniProt A1L190 1-88, looked up, SYCE3, human, full length, amino acids 1–88 (protein of 88 amino acids); it assembles further with concentration; Tags removed with TEV protease; also called SYCE3 1–88; WT SYCE3; source: E. coli BL21(DE3), purified (Ni-NTA, amylose, anion exchange, SEC where appropriate); not shown: His6, N-terminal, cleaved; MBP, N-terminal, cleaved) MDDADPEERNYDNMLKMLSDLNKDLEKLLEEMEKISVQATWMAYDMVVMRTNPTLAESMRRLEDAFVNCKEEMEKNWQELLHETKQRL | 24 | – | –
SYCE3 1–88 PPP-loop (natural protein, human, UniProt A1L190 1-88, looked up, also called SYCE3 PPP-loop; source: E. coli BL21(DE3), purified (Ni-NTA, amylose, anion exchange, SEC where appropriate); not shown: His6, N-terminal, cleaved; MBP, N-terminal, cleaved) MDDADPEERNYDNMLKMLSDLNKDLEKLLEEMEKISVQATWMAYDMVVGGPPPTLAESMRRLEDAFVNCKEEMEKNWQELLHETKQRL | – | 2 | –
SYCE3 1–88 P53Q (natural protein, human, UniProt A1L190 1-88, looked up, SYCE3, human, amino acids 1–88 with P53Q; also called SYCE3 P53Q; source: E. coli BL21(DE3), purified (Ni-NTA, amylose, anion exchange, SEC where appropriate); not shown: His6, N-terminal, cleaved; MBP, N-terminal, cleaved) MDDADPEERNYDNMLKMLSDLNKDLEKLLEEMEKISVQATWMAYDMVVMRTNQTLAESMRRLEDAFVNCKEEMEKNWQELLHETKQRL | – | – | binding result [3]: binds
MBP-SYCE3 fusion protein (natural protein, human, UniProt A1L190 1-88, looked up, SYCE3, human; source: E. coli BL21(DE3), purified; not shown: MBP, N-terminal, kept) MDDADPEERNYDNMLKMLSDLNKDLEKLLEEMEKISVQATWMAYDMVVMRTNPTLAESMRRLEDAFVNCKEEMEKNWQELLHETKQRL | 4 and 6 | – | –
SYCE3 1–88 W41E/Y44E (natural protein, human, UniProt A1L190 1-88, looked up, SYCE3, human, amino acids 1–88 with W41E and Y44E; also called SYCE3 W41E/Y44E; source: E. coli BL21(DE3), purified (Ni-NTA, amylose, anion exchange, SEC where appropriate); not shown: His6, N-terminal, cleaved; MBP, N-terminal, cleaved) MDDADPEERNYDNMLKMLSDLNKDLEKLLEEMEKISVQATEMAEDMVVMRTNPTLAESMRRLEDAFVNCKEEMEKNWQELLHETKQRL | – | 2 | –
